Source: patent US20140004128A1 (AstraZeneca / MedImmune, published 2014)

Legend:
recombinant human IL-18 = recombinant human IL-18 (human, UniProt Q14116 37-193); experiment: cell-based or functional assay
[1] = target: recombinant Rhesus Macaque IL-18 (Rhesus Macaque, UniProt Q9BGI5 37-193); experiment: cell-based or functional assay

Row | Binder | IC50, IFNγ release KG-1 cell assay, human IL-18 (recombinant human IL-18) [nM] | IC50, IFNγ release KG-1 cell assay, Rhesus Macaque IL-18 [1] [nM]
1 | Antibody 2 IgG2 (antibody, V domains shown) VH: QVQLQQSGPRLVKPSQTLSLTCTVSGGSISSGGYYWSWIRQPAGKGLEWIGSIYYSGSTYYNPSLKSRVTISGDTPKNQFSLKLSSVTAADTAVYYCARTPAYDGDARADFFDVWGRGTLVTVSS VL: DIVMTQSPSTLSASVGDRVTITCRASQGISSWLAWYQQKPGRAPKVLIYKASTLESGVPSRFSGSGSGTDFTLTISSLQPEDFATYYCQDISFPPWTFGQGTKLEIK | 5 | 33
2 | Antibody 4 IgG2 (antibody, V domains shown) VH: QVQLQQSGPRLVKPSQTLSLTCTVSGGSISSGGYYWSWIRQPAGKGLEWIGSIYYSGSTYYNPSLKSRVTISGDTPKNQFSLKLSSVTAADTAVYYCARTPAYDGDARADFFDVWGRGTLVTVSS VL: DIVMTQSPSTLSASVGDRVTITCRASQGISSWLAWYQQKPGRAPKVLIYKASTLESGVPSRFSGSGSGTDFTLTISSLQPEDFATYYCQQSHHPNWDFGQGTKLEIK | 6.6 | 35
3 | Antibody 3 IgG2 (antibody, V domains shown) VH: QVQLQQSGPRLVKPSQTLSLTCTVSGGSISSGGYYWSWIRQPAGKGLEWIGSIYYSGSTYYNPSLKSRVTISGDTPKNQFSLKLSSVTAADTAVYYCARTPAYDGDARADFFDVWGRGTLVTVSS VL: DIVMTQSPSTLSASVGDRVTITCRASQGISSWLAWYQQKPGRAPKVLIYKASTLESGVPSRFSGSGSGTDFTLTISSLQPEDFATYYCQQSLYPPWTFGQGTKLEIK | 4.1 | 21

Other lines, results leading:

Row | IC50, IFNγ release KG-1 cell assay, human IL-18 (recombinant human IL-18) [nM] | IC50, IFNγ release KG-1 cell assay, Rhesus Macaque IL-18 [1] [nM] | Binder
4 | 0.166 | 0.212 | Antibody 9 IgG2 (antibody, V domains shown) VH: QVQLQQSGPRLVEPSQTLSLTCTVSGGSISSDGYYWSWIRQPAGKGLEWIGSIYYSGSTYYNPSLKSRVTISGDTPKNQFSLKLSSVTAADTAVYYCARTPAYFGQDRTDFFDVWGRGTLVTVSS VL: DIVMTQSPSTLSASVGDRVTITCRASQGISSWLAWYQQKPGRAPKVLIYKASTLESGVPSRFSGSGSGTDFTLTISSLQPEDFATYYCQQSHHPPWTFGQGTKLEIK
5 | 5.4 | 30 | Antibody 5 IgG2 (antibody, V domains shown) VH: QVQLQQSGPRLVKPSQTLSLTCTVSGGSISSGGYYWSWIRQPAGKGLEWIGSIYYSGSTYYNPSLKSRVTISGDTPKNQFSLKLSSVTAADTAVYYCARTPAYDGDARADFFDVWGRGTLVTVSS VL: DIVMTQSPSTLSASVGDRVTITCRASQGISSWLAWYQQKPGRAPKVLIYKASTLESGVPSRFSGSGSGTDFTLTISSLQPEDFATYYCQQSLIPQWDFGQGTKLEIK
6 | 0.22 | 0.338 | Antibody 10 IgG2 (antibody, V domains shown) VH: QVQLQQSGPRLVEPSQTLSLTCTVSGGSISSDGYYWSWIRQPAGKGLEWIGSIYYSGSTYYNPSLRSRVTISGDTPKNQFSLKLSSVTAADTAVYYCARTPAYFGQDRTDFFDVWGRGTLVTVSS VL: DIVMTQSPSTLSASVGDRVTITCRASQGISSWLAWYQQKPGGAPKVLIYKASTLESGVPSRFSGSGSGTDFTLTISSLQPEDFATYYCQQSHHPPWTFSQGTKLEIK
7 | 0.26 | 0.444 | Antibody 11 IgG2 (antibody, V domains shown) VH: QVQLQQSGPRLVEPSQTLSLTCTVSGGSISADGYYWSWIRQPAGKGLEWIGSLYYSGSTYYNPSLRGRVTISGDTPKNQFSLKLSSVTAADTAVYYCARTPAYFGQDRTDFFDVWGRGTLVTVSS VL: DIVMTQSPSTLSASVGDRVTITCRASQGISSWLAWYQQKPGGAPKVLIYKASTLESGVPSRFSGSGSGTDFTLTISSLQPEDFATYYCQQSHHPPWTFSQGTKLEIK
